In US20190338002A1 (Pieris, published 2019):

B1: lipocalin mutein SEQ ID NO: 2 (designed binder)
chain: QDSTSDLIPAPPLSKVPLQQNFQDNQFHGKWYVVGEAGNWGLREDKDPKKMAATIYELKEDKSYNVTDVQFIEKKCDYWIGTFVPGSQPGEFTLGAIKSEPGQTSNLVRVVSTNYNQHAMVFFKEVWQNRELFWITLYGRTKELTSELKENFIRFSKSLGLPENHIVFPVPIDQCIDGSAWSHPQFEK
B2: lipocalin mutein SEQ ID NO: 3 (designed binder)
chain: QDSTSDLIPAPPLSKVPLQQNFQDNQFHGKWYVVGFAGNMWLREDKDPFKMGATIYELKEDKSYNVTWVWFEAKKCDYGINTFVPGSQPGEFTLGGIKSPPGMTSHLVRVVSTNYNQHAMVFFKEVFQNREWFWITLYGRTKELTSELKENFIRFSKSLGLPENHIVFPVPIDQCIDGSAWSHPQFEK
B3: lipocalin mutein SEQ ID NO: 14 (designed binder)
chain: QDSTSDLIPAPPLSKVPLQQNFQDNQFHGKWYVVGRAGNDALREDKDPEKMEATIYELKEDKSYNVTDVGFVQKKCMYVIHTFVPGSQPGEFTLGNIKSYPGVTSALVRVVSTNYNQHAMVFFKLVKQNRELFEITLYGRTKELTSELKENFIRFSKSLGLPENHIVFPVPIDQCIDGSAWSHPQFEK
notes: biotinylated by NHS chemistry for capture in SPR
B4: lipocalin mutein SEQ ID NO: 15 (designed binder)
chain: QDSTSDLIPAPPLSKVPLQQNFQDNQFHGKWYVVGRAANDRLREDKDPEKMEATIYELKEDKSYNVTDVGFSRKKCIYVIHTFVPGSQPGEFTLGNIKSYPGTTSGLVRVVSTNYNQHAMVFFKVVGQNRESFEITLYGRTKELTSELKENFIRFSKSLGLPENHIVFPVPIDQCIDGSAWSHPQFEK
notes: as for B3
B5: lipocalin mutein SEQ ID NO: 5 (designed binder)
chain: QDSTSDLIPAPPLSKVPLQQNFQDNQFHGKWYVVGRAGNAELREDKDPEKMEATIYELKEDKSYNVTDVGFWQKKCIYVIHTFVPGSQPGEFTLGNIKSYPGTTSALVRVVSTNYNQHAMVFFKVVRQNREWFEITLYGRTKELTSELKENFIRFSKSLGLPENHIVFPVPIDQCIDGSAWSHPQFEK
B6: lipocalin mutein SEQ ID NO: 6 (designed binder)
chain: QDSTSDLIPAPPLSKVPLQQNFQDNQFHGKWYVVGIAGNWWLREDKDPLKMYATIYELKEDKSYNVTHVMFMTKKCDYTIRTFVPGSQPGEFTLGNIKSIPGMTSLLVRVVSTNYNQHAMVFFKFVWQNREWFHITLYGRTKELTSELKENFIRFSKSLGLPENHIVFPVPIDQCIDGSAWSHPQFEK
B7: lipocalin mutein SEQ ID NO: 4 (designed binder)
chain: QDSTSDLIPAPPLSKVPLQQNFQDNQFHGKWYVVGWAGNTLLREDKDPTKMQATIYELKEDKSYNVTWVYFSEKKCNYHIETFVPGSQPGEFTLGTIKSYPGETSILVRVVSTNYNQHAMVFFKGVSQNREIFEITLYGRTKELTSELKENFIRFSKSLGLPENHIVFPVPIDQCIDGSAWSHPQFEK
notes: as for B3

Columns and labels:
[1] = biological target: T1, human alpha CGRP (SEQ ID NO: 80) (human, not fully specified); experiment: competition ELISA in solution; free mutein detected on plate-bound biotinylated CGRP
T1 construct: also called human αCGRP; hαCGRP
T1 peptide: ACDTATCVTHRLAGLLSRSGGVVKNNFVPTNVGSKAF
Procedure: (§1) Binding of lipocalin muteins to alpha and beta CGRP from human and rat in solution was tested in vitro using a competition ELISA assay format (FIG. 1). In this experiment, a constant concentration of non-biotinylated CGRP (0.5 μM) was incubated for 1 h with variable concentrations of lipocalin muteins SEQ ID NO: 2, SEQ ID NO: 3, SEQ ID NO: 4; SEQ ID NO: 5, and SEQ ID NO: 6. After this pre-incubation in solution, an aliquot of the lipocalin mutein/CGRP mixture was transferred to an ELISA plate coated with Neutravidin-captured human alpha CGRP-bio to measure the concentration of lipocalin muteins that was not blocked by non-biotinylated human alpha CGRP (SEQ ID NO: 80) and therefore could still be bound by the immobilized human alpha CGRP-bio (FIG. 1). This procedure was performed on another relevant CGRP species (human beta CGRP (SEQ ID NO: 81), rat alpha CGRP (SEQ ID NO: 82), rat beta CGRP (SEQ ID NO: 83)). All incubation steps were performed with shaking at 300 rpm, and the plate was washed after each incubation step with 80 μL PBS-T buffer (PBS, 0.05% Tween 20) for five times using a Biotek ELx405 select CW washer. In the first step, a 384-well ELISA plate was coated with 20 μL of Neutravidin at a concentration of 5 μg/mL in PBS over night at 4° C. After washing, the plate was blocked with 60 μL PBS-T/BSA (2% BSA in PBS containing 0.05% Tween 20) for 1 h at room temperature.
(§2) To allow for detection and quantification of plate-bound lipocalin muteins, the residual supernatants were discarded and 20 μL HRP-labeled anti-hNGAL antibody was added at a predetermined optimal concentration in PBS-T/BSA and incubated for 1 h at RT. The anti-hNGAL antibody had been obtained by immunization of rabbits with a mixture of muteins, and was subsequently coupled to HRP using a kit (EZ-link Plus Activated Peroxidase, Thermo Scientific) according to the manufacturer's instructions, to obtain the antibody-HRP conjugate. After washing, 20 μl fluorogenic HRP substrate (QuantaBlu, Thermo) was added to each well, and the reaction was allowed to proceed for 15 to 60 minutes. The fluorescence intensity of every well on the plate was read using a fluorescence microplate reader (Tecan or Molecular Devices). To evaluate the data, free mutein concentration, c(mutein)free, was calculated based on the standard curve results, and plotted versus ligand concentration, c(Ligand).

[2] = biological target: T2, human beta CGRP (SEQ ID NO: 81) (human, not fully specified); experiment: as above
T2 construct: also called human βCGRP; hβCGRP
T2 peptide: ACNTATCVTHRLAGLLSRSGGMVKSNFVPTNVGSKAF
Procedure: as §1, §2

[3] = biological target: T3, rat alpha CGRP (SEQ ID NO: 82) (rat); experiment: as above
T3 construct: also called rat αCGRP; rat α-CGRP
T3 peptide: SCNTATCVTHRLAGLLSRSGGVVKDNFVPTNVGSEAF
Procedure: as §1, §2

[4] = biological target: T4, rat beta CGRP (SEQ ID NO: 83) (rat, not fully specified); experiment: as above
T4 construct: also called rat βCGRP; rat β-CGRP
T4 peptide: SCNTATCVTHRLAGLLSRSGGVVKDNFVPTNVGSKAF
Procedure: as §1, §2

[5] = biological target: T1, human alpha CGRP (SEQ ID NO: 80); experiment: cell-based or functional assay
[6] = biological target: T2, human beta CGRP (SEQ ID NO: 81); experiment: cell-based or functional assay
[7] = biological target: T3, rat alpha CGRP (SEQ ID NO: 82); experiment: cell-based or functional assay
[8] = biological target: T4, rat beta CGRP (SEQ ID NO: 83); experiment: cell-based or functional assay
[9] = biological target: T1, human alpha CGRP (SEQ ID NO: 80); experiment: SPR, 37 C, mutein captured, CGRP analyte
Procedure: (§3) The Biotin CAPture Kit (GE Healthcare) was used to immobilize biotinylated lipocalin muteins to a chip surface. Muteins were biotinylated using standard NHS chemistry. Undiluted Biotin CAPture Reagent (streptavidin conjugated with ss-DNA oligo) was captured on a Sensor Chip CAP with the pre-immobilized complementary ss-DNA oligo. Thereafter, biotinylated muteins at 1 μg/mL were applied for 300 s at a flow rate of 5 μL/min.
(§4) CGRP species were applied in three concentrations of 30 nM, 3 nM and 0.3 nM at a flow rate of 30 μL/min or in a single concentration of 25 nM per cycle as shown in FIG. 2. The dilutions were injected with association times of 180 s and dissociation times of 5400 sec to obtain ka and kd information. Regeneration of the chip surface was achieved by injecting 6 M Guanidinium-HCl+0.25 M NaOH (120 s) with a flow rate of 10 μL/min. Injection of regeneration solutions was followed by an extra wash step with HBS-EP+(1×; BR-1006-69; GE Healthcare) running buffer and a stabilization period of 120 s.
(§5) The data were double-referenced by subtraction of the corresponding signals measured for the control channel (loaded with Biotin CAPture reagent only) and by subtraction of buffer injections from the binding responses. Association rate constant ka and dissociation rate constant kd for the binding reaction were determined using Biacore T200 Evaluation Software V2.0 for data processing and kinetic fitting. The data were globally fit with 1:1 binding model.

[10] = biological target: T2, human beta CGRP (SEQ ID NO: 81); experiment: SPR, 37 C, mutein captured, CGRP analyte
Procedure: as §3, §4, §5

[11] = biological target: T3, rat alpha CGRP (SEQ ID NO: 82); experiment: SPR, 37 C, mutein captured, CGRP analyte
Procedure: as §3, §4, §5

[12] = biological target: T4, rat beta CGRP (SEQ ID NO: 83); experiment: SPR, 37 C, mutein captured, CGRP analyte
Procedure: as §3, §4, §5

[13] = biological target: T1, human alpha CGRP (SEQ ID NO: 80); experiment: SPR Biacore 37 °C, mutein captured as ligand, sample PL1827 (ha CGRP) injected, 1:1 fit; repeat run 130903_NAN-DS-058 (not the run of Table 2) [contd]
Procedure: as §3, §4, §5

[14] = biological target: T1, human alpha CGRP (SEQ ID NO: 80); experiment: SPR Biacore 37 °C, mutein captured as ligand, ha CGRP (1-37) injected, 1:1 fit; repeat run 130208_NAN-DS-047 (not the run of Table 2) [contd]
Procedure: as §3, §4, §5

[15] = biological target: T2, human beta CGRP (SEQ ID NO: 81); experiment: SPR Biacore 37 °C, mutein captured as ligand, hb CGRP (1-37) injected, 1:1 fit; repeat run 130208_NAN-DS-047 (not the run of Table 2) [contd]
Procedure: as §3, §4, §5

[16] = biological target: T3, rat alpha CGRP (SEQ ID NO: 82); experiment: SPR Biacore 37 °C, mutein captured as ligand, ra CGRP (1-37) injected, 1:1 fit; repeat run 130208_NAN-DS-047 (not the run of Table 2) [contd]
Procedure: as §3, §4, §5

[17] = biological target: T4, rat beta CGRP (SEQ ID NO: 83); experiment: SPR Biacore 37 °C, mutein captured as ligand, rb CGRP (1-37) injected, 1:1 fit; repeat run 130208_NAN-DS-047 (not the run of Table 2) [contd]
Procedure: as §3, §4, §5

| Binder | IC50 [1] [nM] | IC50 [2] [nM] | IC50 [3] [nM] | IC50 [4] [nM] | Kd [9] [nM] | koff [9] [s⁻¹] | kon [9] [M⁻¹ s⁻¹] | Kd [10] [nM] | koff [10] [s⁻¹] | kon [10] [M⁻¹ s⁻¹] | Kd [11] [nM] | koff [11] [s⁻¹] | kon [11] [M⁻¹ s⁻¹] | Kd [12] [nM] | koff [12] [s⁻¹] | kon [12] [M⁻¹ s⁻¹] | also measured |
| --- | --- | --- | --- | --- | --- | --- | --- | --- | --- | --- | --- | --- | --- | --- | --- | --- | --- |
| B1 | 55 | 46 | 35 | 47 |  |  |  |  |  |  |  |  |  |  |  |  |  |
| B2 | 7.5 | 14 |  | 12 |  |  |  |  |  |  |  |  |  |  |  |  |  |
| B3 |  |  |  |  | 0.055 | 0.000141 | 2.56e+06 | 0.031 | 0.000141 | 4.56e+06 | 0.29 | 0.000339 | 1.19e+06 | 0.107 | 0.000181 | 1.69e+06 | IC50, CGRP-induced cAMP production, SK-N-MC cells [5]: 0.15 nM; IC50, CGRP-induced cAMP production, SK-N-MC cells [6]: 1.5 nM; IC50, CGRP-induced cAMP production, L6 cells [7]: 0.12 nM; IC50, CGRP-induced cAMP production, L6 cells [8]: 0.09 nM; koff [13]: 0.000183 s⁻¹; kon [13]: 3.44e+06 M⁻¹ s⁻¹ |
| B4 |  |  |  |  | 0.038 | 0.000238 | 6.32e+06 | 0.018 | 0.000273 | 1.53e+07 | 0.17 | 0.000274 | 1.59e+06 | 0.039 | 0.000193 | 4.98e+06 | koff [14]: 0.000256 s⁻¹; kon [14]: 5.23e+06 M⁻¹ s⁻¹; koff [15]: 0.000309 s⁻¹; kon [15]: 1.22e+07 M⁻¹ s⁻¹; koff [16]: 0.000295 s⁻¹; kon [16]: 1.38e+06 M⁻¹ s⁻¹; koff [17]: 0.000178 s⁻¹; kon [17]: 2.31e+06 M⁻¹ s⁻¹ |
| B5 | 36 | 28 | 21 | 27 |  |  |  |  |  |  |  |  |  |  |  |  |  |
| B6 | 3.1 |  | 0.77 | 1.6 |  |  |  |  |  |  |  |  |  |  |  |  |  |
| B7 | 2.1 | 1.8 | 2.6 | 3 | 1.82 | 0.00302 | 1.66e+06 | 0.753 | 0.00395 | 5.24e+06 | 5 | 0.00621 | 1.24e+06 | 2.19 | 0.00365 | 1.66e+06 |  |
